US20030059827A1 (published 2003)

Target: T1, GFP (non-modified EGFP) (UniProt P42212 1-238 = GFP)
T1 construct: also called GFP alone; original GFP
Experiment: affinity chromatography on Ni-NTA-bound PDZ, Western blot with anti-GFP
Excerpt: To carry out the affinity chromatography assay, bacterially-expressed PDZ domains and EGFP derivatives were produced and fused to the different target peptides. The original and modified PDZ domains were expressed in E. coli XL1-Blue as fusions with 6XHis. The EGFP-peptides fusions were expressed in E. coli BL21 as described in Sambrook et al, 1989, Molecular Cloning: A Laboratory Manual, 2nd Ed., Vol 3. The bacterially expressed PDZ domains were then bound to nickel resin (Ni-NTA agarose, Quiagen) as described by the manufacturer. The resin-bound PDZ domains were then incubated with E.coli extracts made from bacteria expressing each of the target peptide-GFP fusions and washed four times with 50 mM NaH₂PO₄, 300 mM NaCl; 20 mM Imidazole; 0,1% of TritonX-100 to remove any unbound proteins. The bound proteins were eluted using 50 mM NaH₂PO₄, 300 mM NaCl; 200 mM Imidazole and analyzed by Western blot using antibodies against GFP to determine the presence of EGFP fused to the target peptide.

B1: PDZ-3, third PDZ domain of mouse PSD-95 (amino acids 302-402) fused to polyhistidine (6XHis), from plasmid pQEPDZ-3 (other)
chain: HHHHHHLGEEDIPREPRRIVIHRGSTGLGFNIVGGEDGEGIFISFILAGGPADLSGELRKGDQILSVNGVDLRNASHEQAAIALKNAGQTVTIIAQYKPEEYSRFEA
notes: range 302-402; also called original PDZ domain; the original PDZ
binding result: no binding
